Results published in the supplement of paper PMC10567573.
± gives the standard deviation.

Test: protein stability index of a GFP-peptide fusion (GPS, HEK-293T) (PSI 1-6); higher = more stable
[1] = treatment: DMSO, c terminus: a fixed tail appended
[2] = treatment: MLN4924 1 uM, 8 h, c terminus: a fixed tail appended
[3] = treatment: DMSO, c terminus: native
[4] = treatment: MLN4924 1 uM, 8 h, c terminus: native
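Also: 24-mer peptide tiles fused after GFP, lentivirally expressed, FACS-sorted into six equal bins by GFP/DsRed ratio, decoded by Illumina sequencing, PSI is the read-weighted mean bin number.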

Row | Sequence | protein stability index [1] | protein stability index [2] | protein stability index [3] | protein stability index [4]
1 | HLQLLGAVCMFLASKLKETSPLTA [CCND2] | 2.48 ± 0.34 | 2.36 ± 0.25 |  | 
2 | DQWNILQTPILEGRSGPGCAVLDD [KLHL14] | 4.37 ± 0.34 | 4.16 ± 0.26 |  | 
3 | KKMSCQQFIANLDQLNDGQDFAKD [PSD2] | 4.41 ± 0.22 | 4.4 ± 0.2 |  | 
4 | WTLEDEIHSPAHPEIEKADDHLQQ [ZNF649] | 5.2 ± 0.34 | 5.26 ± 0.3 |  | 
5 | CEEVKMTVASEAKIQLSDSEAKSH [FAN1] | 5.46 ± 0.17 | 5.47 ± 0.074 |  | 
6 | LGFARRNWGNGKRPNLETYYERVL [GDAP1] | 2.38 ± 0.38 | 2.36 ± 0.57 |  | 
7 | MVVDFWTWEQTFQELIQEAKPRAT [RTP4] | 2.5 ± 0.49 | 2.2 ± 0.36 |  | 
8 | APEAKDGSSFSGRVFRVTFLMLAV [APMAP] | 3.47 ± 0.77 | 2.77 ± 0.75 |  | 
9 | ASSLNGGNIKGIEGHSPGNLPKFC [ZC2HC1A] | 3.56 ± 0.078 | 4.02 ± 0.15 |  | 
10 | IKAWMDRYEEANNNQYSEGVQREA [KMT2E] | 3.77 ± 0.14 | 4.05 ± 0.28 |  | 
11 | LNSEQAEQLERINDALSCEYECRR [FAM98B] | 4.54 ± 0.29 | 4.66 ± 0.11 |  | 
12 | ARLKRSQSFGVASASSIKQILLEW [SMTNL2] | 2.33 ± 0.28 | 2.29 ± 0.17 |  | 
13 | VAGEGVRRKGEMGLSAEDGVWAVI [TRIM15] | 2.51 ± 0.22 | 2.55 ± 0.2 |  | 
14 | LSSAEENEPSQAETAVEGDPSGVS [C18orf25] | 5.47 ± 0.24 | 5.39 ± 0.47 |  | 
15 | ISSIEAQLSELRSEMECQNQEYKM [KRT13] | 4.76 ± 0.23 | 4.69 ± 0.29 |  | 
16 | PSTTERISTSGQAGTSSHGCWAWP [PXN] | 3.04 ± 0.21 | 3.17 ± 0.23 |  | 
17 | QPCNPPAPAGDKGFQPPSPSLRPR [DMRTC1] | 5.27 ± 0.14 | 5.15 ± 0.19 |  | 
18 | RLSTSPVRLAARQEDAPMIEPLVP [EPB41L3] | 4.6 ± 0.18 | 4.63 ± 0.43 |  | 
19 | EAAGESLEEEIRRKQILLRGKLKK [ZC2HC1C] | 4.87 ± 0.33 | 4.59 ± 0.35 |  | 
20 | YRQPIPVQELVLEDLQDGDVRMGG [NET1] | 4.4 ± 0.29 | 4.56 ± 0.34 |  | 
21 | EILSSRASYSGKAADVWSLGVALF [TRIB3] | 2.52 ± 0.52 | 2.42 ± 0.39 |  | 
22 | EETEVLAHEIERLQMEMKEDDVSF [TRIM35] | 5.43 ± 0.2 | 5.48 ± 0.094 |  | 
23 | TSLEITILTSQPGKEVVKQLEEGL [M1AP] | 2.74 ± 0.22 | 2.68 ± 0.2 |  | 

Row | Sequence | protein stability index [1] | protein stability index [2] | protein stability index [3] | protein stability index [4]
24 | YEIRVKTNLPIFKLKESTVRRRYS [SNX3] | 2.44 ± 0.4 | 2.27 ± 0.22 |  | 
25 | SLALDIDRDAEDQNRYLDGMVRAH [BET1L] | 4.24 ± 0.17 | 4.39 ± 0.31 |  | 
26 | DDKDALVFVLIDEVESLTAARNAC [TRIP13] | 2.21 ± 0.32 | 2.38 ± 0.34 |  | 
27 | HRTRLQDLRVLVSNASEDTRRLRL [SCARA5] | 3.29 ± 0.11 | 3.57 ± 0.15 |  | 
28 | GCRTTHSNQEVLQSCLLVIFATKP [PYCR3] | 2.64 ± 0.68 | 2.65 ± 0.91 |  | 
29 | PKNREYDRFYVINYLVRLSFHNLK [ZNF277] | 3.03 ± 1.2 | 2.29 ± 0.31 |  | 
30 | HNIVHVHFDATRGWLLTSGTDKVI [WDFY2] | 2.26 ± 0.45 | 2.25 ± 0.15 |  | 
31 | ELFEDIVAREYYSEADASHCIQQI [CAMK2B] | 2.8 ± 0.34 | 3.03 ± 0.25 |  | 
32 | PLPKRVAKVPRPPSTLLPTPEEQG [FOXJ1] | 4.97 ± 0.29 | 4.82 ± 0.34 |  | 
33 | NQPSGLIRTYLGRSPLVSGDESSL [RHOBTB3] | 3.85 ± 0.25 | 3.84 ± 0.3 |  | 
34 | STAPGLFLVSTHTGEVRTARALLE [PCDHGC5] | 2.5 ± 0.27 | 2.54 ± 0.31 |  | 
35 | TFFEVSPLCNFNIIESFTELARIV [RAB40A] | 2.53 ± 0.42 | 2.43 ± 0.28 |  | 
36 | QMKQKVQSLYQEVFGRLRDENGRP [NFE2L1] | 2.66 ± 0.35 | 3.65 ± 0.48 |  | 
37 | VFLVSCALPDSVLRRFVVRTMCAV [AUP1] | 2.71 ± 0.49 | 2.67 ± 0.068 |  | 
38 | LEEAEGAVGYQPEYSKFCRMSYQD [NFE2L1] | 3.56 ± 0.4 | 3.05 ± 0.31 |  | 
39 | MLQIPQEKSQAYPRRRRPGCYAYR [MYORG] | 3.22 ± 0.43 | 3.23 ± 0.23 |  | 
40 | NIMPYESTRVCLQPIRGVEGSDYI [PTPRD] | 2.91 ± 0.084 | 3.09 ± 0.18 |  | 
41 | LLPESGIVADIELENVLDPDSFYE [TFE3] | 4.47 ± 0.3 | 4.76 ± 0.49 |  | 
42 | RLPTDSHFPYDLHLRSQSLTMQDE [NEUROD6] | 4.32 ± 0.14 | 4.34 ± 0.16 |  | 
43 | LPEAPPKKFLTLGSKFRYSGRTQA [EPB41L3] | 3 ± 0.28 | 3.18 ± 0.39 |  | 
44 | KKCVKKFVEYCDVNNDKSISVQEL [SMOC2] | 3.57 ± 0.21 | 3.68 ± 0.49 |  | 
45 | HAPQISYTGPSSSGRFAGREWYYG [NCK2] | 2.52 ± 0.17 | 2.8 ± 0.4 |  | 
46 | GLMVTCGTDRIVKIWDMTPVVGCS [WDFY1] | 2.29 ± 0.21 | 2.18 ± 0.22 |  | 

Row | Sequence | protein stability index [1] | protein stability index [2] | protein stability index [3] | protein stability index [4]
47 | VITALKCHKYDRNIQVTGSAALFY [ZER1] | 2.84 ± 0.18 | 2.85 ± 0.47 |  | 
48 | GVVVEDGVCIRRCTVLRDARIRSH [GMPPB] | 2.83 ± 0.19 | 2.75 ± 0.33 |  | 
49 | VETELQRRNEETPEEGQQPWLCGE [GDAP1] | 5.38 ± 0.1 | 5.5 ± 0.15 |  | 
50 | SIQVRRKPQHGVCSQLLGNYRCL [SERPINB9P1] |  |  | 2.69 ± 0.51 | 3.09 ± 0.18
51 | DPQNGFDVNNLDPDLRSLFSRAGI [WAS] | 3.93 ± 0.3 | 3.81 ± 0.32 |  | 
52 | HIFPASRWEPYDPEKKWDKYTIR [FAM50A] |  |  | 2.82 ± 0.45 | 3.15 ± 0.51
53 | GPLDIWAVVKPGNTKEKIAFFASH [FBXO34] | 2.45 ± 0.27 | 2.78 ± 0.21 |  | 
54 | RFSSGGACGLGGGYGGGFSSSSSF [KRT16] | 2.38 ± 0.64 | 2.1 ± 0.35 |  | 
55 | SYDCTVKLWDPVDGSVVRDFEHRP [WDR88] | 3.44 ± 0.22 | 3.62 ± 0.3 |  | 
56 | ASGNATQTESGSEEVSSTVHIETF [C10orf62] | 5.11 ± 0.21 | 5.27 ± 0.2 |  | 
57 | RPRTRKVKSVSPQGNSVDRMAAPR [NCF4] | 4.85 ± 0.15 | 4.795 ± 0.046 |  | 
58 | FMQTGYNKLCDWWSLGVIMYEMLI [STK38L] | 2.77 ± 0.82 | 2.47 ± 0.64 |  | 
59 | TRIMIGLTLVFFVQITGQPNILFY [SLC2A12] | 3.16 ± 0.61 | 3.27 ± 0.35 |  | 
60 | GLLQDQGSGLSSRFEEPKGPPARQ [CBY2] | 4.89 ± 0.29 | 5.09 ± 0.23 |  | 
61 | DEVDDFEDFIFSHFFGDKALKKRS [PBXIP1] | 3.26 ± 0.23 | 3.29 ± 0.39 |  | 
62 | IDAIYSVIDDAKQYVYIAVMDYLP [PLD5] | 3.55 ± 0.11 | 3.73 ± 0.42 |  | 
63 | FKPKNEEPYGHLNPKWTKWLQKLC [PI4K2A] | 2.88 ± 0.58 | 2.79 ± 0.54 |  | 
64 | EAAMAIASLNGYRLGERVLQVSFK [ELAVL3] | 2.24 ± 0.11 | 2.27 ± 0.17 |  | 
65 | QPLEVKNNSNLQRMGSSESTDSGF [CDC25A] | 5.28 ± 0.23 | 5.06 ± 0.49 |  | 
66 | FIVGMVGNATLLRIIYQNKCMRNG [EDNRA] | 2.98 ± 0.15 | 2.51 ± 0.68 |  | 
67 | YVPNMLGIIPYAGIDLAVYETLKN [SLC25A25] | 2.87 ± 0.19 | 2.61 ± 0.5 |  | 
68 | SGLSFITFICYVASSASAFLTAPL [CMTM3] | 3.15 ± 0.49 | 2.96 ± 0.3 |  | 
69 | GPLAQPLTLQVLVAGNPQDTRLRY [ADAMTS4] | 2.49 ± 0.22 | 2.86 ± 0.1 |  | 

Row | Sequence | protein stability index [1] | protein stability index [2] | protein stability index [3] | protein stability index [4]
70 | ENYNNLANAVISVSGINHDVTSGD [CPN1] | 4.28 ± 0.2 | 4.4 ± 0.14 |  | 
71 | LGSDDINVVTCAAGILSNLTCNNY [CTNNB1] | 2.27 ± 0.22 | 2.37 ± 0.22 |  | 
72 | FHCIETLVTTGANVNETDDWGRTA [ANKRD44] | 2.62 ± 0.32 | 3.15 ± 0.36 |  | 
73 | QIKAIRGSNEYTEGPSVVKRPAPR [SPRY1] | 4.05 ± 0.09 | 4.47 ± 0.3 |  | 
74 | RIPTCHDKPGTTQIVQLTQQVDTN [DENND6A] | 4.6 ± 0.14 | 4.59 ± 0.14 |  | 
75 | RKSMLDAGPDSWGSDAEQSTSGQP [LCOR] | 5.21 ± 0.091 | 5.15 ± 0.24 |  | 
76 | AKMGATKEEREDTPIQLQELLALE [TCAP] | 5.28 ± 0.24 | 5.15 ± 0.27 |  | 
77 | SLKVKFFDLERENACATKEQKNHT [PLD5] | 4 ± 0.36 |  |  | 
78 | NTPMEETVRAMTHVINQGMAMYWG [KCNAB2] | 2.92 ± 0.39 | 3.13 ± 0.96 |  | 
79 | LNGTKVAEGHKASFCLEDTECEGD [LOXL2] | 5.41 ± 0.33 | 5.59 ± 0.12 |  | 
80 | RKKDKTWMHTPEALSKHFIPYNAK [GULP1] | 2.82 ± 0.25 | 2.99 ± 0.47 |  | 
81 | MDGQTDFWRDWEDYAHGFGNISGE [TNXB] | 3.94 ± 0.34 | 4.34 ± 0.58 |  | 
82 | ELRVLADTYDSVYLHPNSYSCACL [HDAC6] | 2.03 ± 0.12 | 2.04 ± 0.4 |  | 
83 | SDLGLLRLCTWLLALSPDLSLSNA [FANCE] | 3.08 ± 0.33 | 3.17 ± 0.47 |  | 
84 | DYSRPLHISTFINELDSGFRLLNL [TSN] | 2.11 ± 0.27 | 2.21 ± 0.088 |  | 
85 | VASGLQFDVETRHVFIGDHSGQVT [WDFY2] | 2.91 ± 0.54 | 3.12 ± 0.46 |  | 
86 | YNWEEERATNHLDQVPSMQDGSES [SPAG8] | 5.33 ± 0.23 | 5.44 ± 0.15 |  | 
87 | EPNTLRAPRVRTAFTMEQVRTLEG [VENTX] | 3.98 ± 0.39 | 3.85 ± 0.21 |  | 
88 | KRASAPTFDNDYSLSELLSQLDSG [RIPK4] | 3.75 ± 0.37 | 3.56 ± 0.15 |  | 
89 | RETYPRTPYVRWNYVAKNFAQALG [SOAT2] | 2.34 ± 0.34 | 2.17 ± 0.38 |  | 
